Experiment: Biolayer interferometry of LYS11 ectodomains binding to CO5
Settings: BLI; result in words
Protocol: Binding of L. japonicus LYS11 ectodomain and domain-swapped versions of L. japonicus LYS11 ectodomain to ligands was measured on an Octet RED 96 system (Pall ForteBio). The ligands used were CO5 chitin oligomer (corresponding to the backbone of S. meliloti Nod factor LCO-V), M. loti Nod factor LCO, and S. meliloti Nod factor LCO. S. meliloti LCO consists of a tetrameric/pentameric N-acetylglucosamine backbone that is O-sulfated on the reducing terminal residue, O-acetylated on the non-reducing terminal residue, and mono-N-acylated by unsaturated C16 acyl groups. M. loti LCO is a pentameric N-acetylglucosamine with a cis-vaccenic acid and a carbamoyl group at the non-reducing terminal residue together with a 2,4-O-acetylfucose at the reducing terminal residue. Biotinylated ligand conjugates were immobilized on streptavidin biosensors (kinetic quality, Pall ForteBio) at a concentration of 125-250 nM for 5 minutes. Data analysis was performed in GraphPad Prism 6 software (GraphPad Software, Inc.). Equilibrium dissociation constants derived from the steady-state were determined by applying a non-linear regression (one site, specific binding) to the response at equilibrium plotted against the protein concentration. Kinetic parameters were determined by non-linear regression (association followed by dissociation) on the subtracted data. […]

B1: L. japonicus LYS11 ectodomain: L. japonicus LYS11 ectodomain (residues 26-234 of SEQ ID NO: 255), 6xHis tag, insect cell expressed (protein)
chain: LAQLSHTNGTNFSCPVDSPPSCDTYVTYFAQSPNFLTLTSISDLFDTSPLSIARASNIKDENQNLVPGQLLLVPVTCACSGSNSFSNISHMIKEGESYYYLSTTSYENLTNWETVQDSNPNYNPYLLPVGIKVVIPLFCKCPSNYHLNKGIEYLITYVWHNNDNVSLVASKFGVSTQDIISENNFSHQNFTAATNFPILIPVTQLPSLS
modifications: 6xHis tag; Xaa = hydrophobic patch residues; Xaa = residues immediately adjacent to hydrophobic patch residues
  binding to CO5 (chitin): able to bind CO5
